The values that follow come from US20230066517A1, “Phospholipid Ether Conjugates as Cancer-Targeting Drug Vehicles” (Cellectar Biosciences, Inc., priority 2019, published 2023).

Data set [1] is described as follows: Cyprotex Plasma Stability assay, human plasma. It is filed as in vitro ADME. As to the method:
To determine whether cytotoxic PDCs are tolerated in vivo, C57BL/6 mice were dosed in the following manner: PDC-SM2 was dosed on days 0, 3 and 7 at dose levels of 0.5 mg/kg, 1.0 mg/kg, or 2.0 mg/kg; Payload alone was dosed on day 0 only at 0.25 mg/kg, 0.4 mg/kg, or 0.5 mg/kg; vehicle was dosed on day 0, 3 and 7. […] Payload dose of 0.5 mg/kg was not tolerated, two mice died by day 4 following a single infusion and all mice were sacrificed on day 5 (FIG. 5). […] Plasma stability was measured using Cyprotex’s Plasma Stability assay. The samples were at a concentration of 1 µM and were incubated at 0, 15, 30, 60 and 120 minutes. A positive control compound which undergoes degradation in plasma was used. The percent of the compound remaining at each incubation time point was measured. […] Overall, PDCs offer a novel and unique approach to targeting small molecules to tumor cells.

Data set [2] can be described thus: Cyprotex Plasma Stability assay, mouse plasma. It counts as in vitro ADME. The procedure: To determine whether cytotoxic PDCs are tolerated in vivo, C57BL/6 mice were dosed in the following manner: PDC-SM2 was dosed on days 0, 3 and 7 at dose levels of 0.5 mg/kg, 1.0 mg/kg, or 2.0 mg/kg; Payload alone was dosed on day 0 only at 0.25 mg/kg, 0.4 mg/kg, or 0.5 mg/kg; vehicle was dosed on day 0, 3 and 7. […] Plasma stability was measured using Cyprotex’s Plasma Stability assay. The samples were at a concentration of 1 µM and were incubated at 0, 15, 30, 60 and 120 minutes. A positive control compound which undergoes degradation in plasma was used. The percent of the compound remaining at each incubation time point was measured.

The subject of data set [3] is HCT 116 xenografts. In words: In vivo efficacy in colorectal cancer xenograft model. To be noted: 10 mg/kg on day 1 and 4. The arrangement: species or system athymic nude mice. As to the method:
CLR180099 was administered intravenously (IV) to healthy C57BL/6 mice to determine the maximum tolerated dose (MTD) as compared to the FLV molecule alone. The vehicle used to administer CLR180099 was PBS in this case, however any pharmaceutically suitable vehicle may be used. Each group contained 5 mice. In vivo efficacy was assessed in athymic nude mice bearing HCT 116 xenografts. The mice were flank models which were developed by injecting the hind flank of the mice with about 1x10^6 of the cells resuspended in […] of 1.2% methylcellulose. The study was initiated when group mean tumor volume reached about 120 mm^3. Tumor volume was measured using calipers - measurements of the length, width, and depth of the tumor were used to calculate the tumor volume. Two doses (2 mg/kg given 2 times or 2 mg/kg given 3 times) of CLR180099 were assessed. Each group contained 10 mice. Tumor volume was monitored for efficacy and body weight for tolerability. Total conjugated CLR180099 and free FLV were determined via mass spectrometry.
The study was initiated when group mean tumor volume reached -120 mm^3 (Day 1). CLR180099 was dosed IV at 2 mg/kg on either day 1 and 4 or day 1, 3 and 5. Docetaxel was dosed at 10 mg/kg on day 1 and 4. […] Five mice per group were dosed at each dose level. Both PDCs were tolerated up to dose of 10 mg/kg with all mice alive and showing no end organ toxicities (TABLE 5). […]

Data set [4] deals with Hs578T triple negative breast cancer cells. The experiment in a line: In vitro cytotoxicity, Cell Titer-Glo assay. It is filed as cell-based. As to conditions: FIG. 7. The procedure:
(§1) In vitro uptake of CLR2000045 was assessed using MCF-7 breast cancer cells and normal human dermal fibroblasts (NHDF) cells and was measured via LC/MS/MS. The breast cancer cells were maintained in minimum essential medium supplemented with 10% FBS. All cells were maintained at 37° C. and 5% CO2. Cells were incubated with 1 µM of drug and reported values were the average of triplicate assessments. In vitro cytotoxicity was determined by Cell Titer-Glo® assay using MCF-7 breast cancer cells and Hs578T triple negative breast cancer cells.
Between 24 and 48 hours a steady state between uptake and release of the warhead was achieved (FIG. 6). […] Half maximal inhibitory concentration (IC50) was measured in the cell lines (TABLE 2). Plasma stability of CLR2000045 was also measured (TABLE 3).

The test system of data set [5] is MCF-7 breast cancer cells. In words: In vitro uptake and release of CLR2000045, LC/MS/MS. It is filed as cell-based. As to the method: as §1
Data set [6] concerns MCF-7 breast cancer cells. To be noted: FIG. 7.
Procedure: The breast cancer cells were maintained in minimum essential medium supplemented with 10% FBS. All cells were maintained at 37° C. and 5% CO2. […] In vitro cytotoxicity was determined by Cell Titer-Glo® assay using MCF-7 breast cancer cells and Hs578T triple negative breast cancer cells.
Data set [7] has as its system normal human dermal fibroblasts (NHDF) cells. The experiment in a line: In vitro uptake of CLR2000045, LC/MS/MS. It counts as cell-based. As to conditions: 1 µM. As to the method: as §1
For data set [8], the system named is HCC70 triple negative breast cancer (TNBC) xenografts. In words: In vivo efficacy in TNBC xenograft model. Also on record: species or system R2G2 mice. As to the method: In vivo efficacy was further assessed in R2G2 mice bearing HCC70 triple negative breast cancer (TNBC) xenografts. Three doses (1 mg/kg) given once, twice or 3 times per week for 2 weeks of CLR2000045 were assessed. CLR2000045 was administered systemically by injection of the tail vein. Each group contained 10 mice. Tumor volume was monitored for efficacy and body weight for tolerability. Survival was also monitored.
The study was initiated when group mean tumor volume reached ~200 mm^3 (Day 4). CLR2000045 was dosed IV at the following doses: 1 mg/kg on either day 5 and 12 or day 5, 8, 12 and 15 or day 5, 7, 9, 12, 14, and 16. […] Changes in body weight post treatment were measured in the (HCC70) mouse xenograft model (FIG. 11A and FIG. 11B).

Setting [9] is: Table 1, 1 µM, 0-120 minutes, read-out: Human T½.

pIC50: −log10 of the molar value. Starred links: 1 amine or outer side, 2 acyl side, 3 side chain; linkers in the order of their positions; H or OH if unused. Non-standard residues stand in square brackets, D forms with d. Residues, ends and D or L forms follow the SMILES beside them. *: point of attachment. X1 = C[N+](C)(C)CCOP(=O)([O-])OCCCCCCCCCCCCCCCCCCc1ccc(C(=O)*)cc1; Dolaproine = CO[C@@H]([C@@H]1CCCN1)[C@@H](C)C(=O)O; Dil = CC[C@H](C)[C@H](NC)[C@@H](CC(=O)O)OC; PABC = O=C(OCc1ccc(N[*:1])cc1)[*:2]; X2 = C[C@@H](N*)[C@@H](O)c1ccccc1; Cit = NC(=O)NCCC[C@H](N)C(=O)O; NMeV = CN[C@H](C(=O)O)C(C)C

For the compound `CC[C@H](C)[C@@H]([C@@H](CC(=O)N1CCC[C@H]1[C@H](OC)[C@@H](C)C(=O)N[C@H](C)[C@@H](O)c1ccccc1)OC)N(C)C(=O)[C@@H](NC(=O)[C@H](C(C)C)N(C)C(=O)OCc1ccc(NC(=O)[C@H](CCCNC(N)=O)NC(=O)[C@@H](NC(=O)c2ccc(CCCCCCCCCCCCCCCCCCOP(=O)([O-])OCC[N+](C)(C)C)cc2)C(C)C)cc1)C(C)C` [PDC-SM3] (X1-V[Cit][PABC][NMeV]V[Dil][Dolaproine]-X2), the half-life at 1 µM in data set [1] (setting [9]) was greater than 6.67 h; in data set [2] (Table 1, 1 µM, 0-120 minutes, read-out: Mouse T½) it was greater than 6.67 h.
For the compound `CC(C)[N+](C)(CCOC(=O)C1c2ccccc2Oc2ccccc21)C(C)C` [Propantheline, reference compound], the half-life at 1 µM in data set [1] (setting [9]) stood at 0.9 h; in data set [1] (Table 3, read-out: Human t½), 1.28 h; in data set [1] (Table 4, read-out: Human t½), 0.9 h; in data set [2] (Table 3, read-out: Mouse t½) it was 0.95 h.
With `C=C(c1ccc(OC)c(NP(=O)(O)OP(=O)(O)OCCNC(=O)c2ccc(CCCCCCCCCCCCCCCCCCOP(=O)([O-])OCC[N+](C)(C)C)cc2)c1)c1cc(C)nc2ccccc12` [CLR2013], the half-life at 1 µM was greater than 6.67 h in data set [1] (Table 3, read-out: Human t½) and 1.28 h in data set [2] (Table 3, read-out: Mouse t½).
As to `COC(=O)[C@@H]1[C@H](O)[C@]2(O)c3c(OC)cc(OCCCCNC(=O)OCC(C)(C)SSCCCCCCCCCCCCCCCCCCOP(=O)([O-])OCC[N+](C)(C)C)cc3O[C@]2(c2ccc(OC)cc2)[C@H]1c1ccccc1` [CLR1800095], the half-life at 1 µM in data set [1] (Table 4, read-out: Human t½) was greater than 6.67 h; in data set [2] (Table 4, read-out: Mouse t½), 3.32 h. In addition, in data set [2], the “stability in mouse plasma (in words)” value is on record as “some instability”.
For `CC(=O)O[C@@]12CO[C@@H]1C[C@H](O)[C@@]1(C)C(=O)[C@H](O)C3=C(C)[C@@H](OC(=O)[C@H](O)[C@@H](NC(=O)OC(C)(C)C)c4ccccc4)C[C@@](O)([C@@H](OC(=O)c4ccccc4)[C@H]21)C3(C)C` [docetaxel], in data set [3], the “deaths in treatment arm” value is “multiple deaths starting at day 18 and ending at day 26”.
In general, pIC50 refers to the negative decadic logarithm of the IC50, by convention in mol/L. Low values mean a large IC50, high ones a small IC50. Take `C=C(c1ccc(OC)c(NC(=O)OCc2ccc(OP(=O)(O)OP(=O)(O)OCCNC(=O)c3ccc(CCCCCCCCCCCCCCCCCCOP(=O)([O-])OCC[N+](C)(C)C)cc3)cc2)c1)c1cc(C)nc2ccccc12` [CLR2000045]: the negative-log IC50 (pIC50) is 7.29 in data set [4] and 7.12 in data set [6]. Also, in data set [5] (1 µM), the “uptake in tumor cells” value is reported as “significant uptake”. Moreover, in data set [5] (at each timepoint), the “release of the warhead” value was “approximately 50%”. The “uptake and release of payload, share of exposed drug” value in data set [5] (tumor cell lines) is listed as 20-40%. For the same compound, the “uptake in normal tissue” value in data set [7] is given as “minimal uptake”. The half-life at 1 µM in data set [1] (Table 3, read-out: Human t½) was greater than 6.67 h; in data set [2] (Table 3, read-out: Mouse t½) it was greater than 6.67 h. In addition, the “eradication of the tumor” value in data set [8] (1 mg/kg IV 3 times per week for 2 weeks (highest dose)) is on record as roughly 100%. For the same compound, the “tumor volume compared to vehicle control” value in data set [8] (1 mg/kg IV, 2 highest dose groups (2x and 3x per week for 2 weeks), p≤0.05 and p≤0.01) was “statistically significant reduction in tumor volume”. Also, the “survival (Kaplan-Meier)” value is reported as “significant increase in survival” in data set [8] (1 mg/kg three times per week for 2 weeks, vs vehicle (p≤0.001) and 1 time per week (p≤0.05)); “significant increase” in data set [8] (1 mg/kg twice a week for two weeks, vs vehicle (p≤0.05)). Also, the “tolerability as measured by body weight loss” value in data set [8] (two highest doses) is “well tolerated”.
